The record followed here is publication PMC6684243.

The test deals with N-terminal domain of the HIV-1 capsid protein (HIV-1) (UniProt P12493). The experiment in a line: ITC. In general terms: Isothermal titration calorimetry measures the heat released or taken up as one component is titrated into another.

With “calcium-saturated human calmodulin ((Ca^2+)4-CaM) (from UniProt P0DP23 1-149) (natural protein)”, the Kd (in general, the concentration at which binding is half-saturated) turned out to be 3.73 µM and the stoichiometry N (as a rule, the number of molecules, sites or subunits per partner or assembly) stood at 1.
